In patent US20230287117A1 (published 2023):

Assays:
Assay in all cases: SPR steady state
His-tagged human FcyRIIA = target: T1, His-tagged human FcyRIIA (human, UniProt P12318 36-218)
T1 chain: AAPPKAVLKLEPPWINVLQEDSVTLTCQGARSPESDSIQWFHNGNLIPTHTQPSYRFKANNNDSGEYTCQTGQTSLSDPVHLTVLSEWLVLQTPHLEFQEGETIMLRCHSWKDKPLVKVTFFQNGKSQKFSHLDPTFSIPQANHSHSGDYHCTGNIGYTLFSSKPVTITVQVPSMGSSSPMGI

[1] = target: His-tagged human FcyRIIIA (human, UniProt P08637 17-208)
His-tagged human FcyRIIB = target: T2, His-tagged human FcyRIIB (human, UniProt P31994 46-217)
T2 chain: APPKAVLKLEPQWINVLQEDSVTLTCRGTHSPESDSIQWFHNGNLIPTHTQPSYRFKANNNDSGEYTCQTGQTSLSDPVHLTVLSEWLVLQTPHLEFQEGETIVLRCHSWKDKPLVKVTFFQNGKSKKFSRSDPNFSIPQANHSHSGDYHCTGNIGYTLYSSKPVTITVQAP

His-tagged human FcyRIIIA, sequence (P08637 17-208): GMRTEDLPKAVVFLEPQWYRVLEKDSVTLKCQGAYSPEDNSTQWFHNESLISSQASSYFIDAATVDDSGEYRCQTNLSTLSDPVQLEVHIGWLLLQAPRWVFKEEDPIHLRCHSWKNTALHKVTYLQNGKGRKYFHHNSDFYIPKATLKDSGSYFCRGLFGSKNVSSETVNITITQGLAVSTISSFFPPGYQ

B1: Control Antibody A (Lot- L2), 9F7_VH_IgG4 (antibody)
constant: ASTKGPSVFPLAPCSRSTSESTAALGCLVKDYFPEPVTVSWNSGALTSGVHTFPAVLQSSGLYSLSSVVTVPSSSLGTKTYTCNVDHKPSNTKVDKRVESKYGPPCPSCPAPEFLGGPSVFLFPPKPKDTLMISRTPEVTCVVVDVSQEDPEVQFNWYVDGVEVHNAKTKPREEQFNSTYRVVSVLTVLHQDWLNGKEYKCKVSNKGLPSSIEKTISKAKGQPREPQVYTLPPSQEEMTKNQVSLTCLVKGFYPSDIAVEWESNGQPENNYKTTPPVLDSDGSFFLYSRLTVDKSRWQEGNVFSCSVMHEALHNRFTQKSLSLSLGK
His-tagged human FcyRIIA
  Kd: 16.8 µM
[1]
  Kd: 140 µM
His-tagged human FcyRIIB
  Kd: 2200 nM
